Results from US10759835B2, “Monomeric streptavidin mutants, methods of using the same and processes of manufacturing proteins” (The Research Foundation for The State University of New York, priority 2016, dated 2020).
“And” between values parts separate entries of the source, which are not always exact repeats. Equal entries are not always repeated. Where two headings read alike, the source gives them in different places.

B1: Brad2: bradavidin 2, streptavidin homolog, SEQ ID NO: 21 (protein, listed as Bradyrhizobium japonicum)
chain: QGLPAPSYWKNERGSELLIWSANSGTIQGTFTNHAQGFACQGIPYPAAGSVSPTGLYFVVTFAQCNSFTRWVGTIKGSQMPTSWTLFYVDNKGKPSRLKGGDIFTRVW
B2: mSA-RF: monomeric streptavidin mutant SEQ ID NO: 3, S25R and T48F (protein)
chain: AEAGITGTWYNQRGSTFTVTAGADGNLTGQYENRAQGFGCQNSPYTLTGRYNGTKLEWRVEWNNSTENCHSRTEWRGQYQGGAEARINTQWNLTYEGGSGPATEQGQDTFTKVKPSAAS
modifications: Modified streptavidin

Tests used:
[1] = biotin; monomer at low pH and protein concentrations; cited from earlier work
[2] = Circular dichroism spectroscopy, thermal denaturation; type: physicochemical
Experimental: (§1) FIG. 4. In vitro characterization of purified mSA mutants. a) Stability of mSA-RF and mSA-RWT in PBS was measured by circular dichroism spectroscopy with or without biotin. b) Fluorescence polarization spectroscopy was used to measure the dissociation rate of biotin-fluorescein. The dissociation rate, koff, was computed by fitting normalized fluorescence polarization data, or bound fraction f, to an exponentially decaying function, i.e. ƒ=e^−k^off^*t The measurements were taken at 37° C. c) The equilibrium affinity of binding Kd between mSA-RF and biotin-fluorescein was measured by FP. d) mSA-S25H and mSA-RF were analyzed by size exclusion chromatography to estimate their molecular weights in solution. Each mutant eluted with a retention time that was consistent with monomeric streptavidin. The molecular weight standards (arrows) correspond to 66.0, 29.0, 12.4 and 6.5 kDa from left to right.
FIG. 8. Circular dichroism spectra of mSA-RF after low pH treatment to release bound biotin is shown in a). mSA-RF was first buffer exchanged to 100 mM glycine (pH 2.3) and then back to PBS (pH 7.5) before CD analysis. The spectra obtained at temperatures 30, 40, 50, 60, 70, and 80° C. were overlaid. The spectra at lower temperatures were colored darker than the spectra at higher temperatures, i.e. the darkest for 30° C. and the lightest for 80° C. The CD values at 235 nm (from FIG. 8a) were used to compute the unfolded fraction shown in b).
FIG. 9. To evaluate the importance of the biotin additive, mSA was induced without biotin in the medium as shown in a). The culture medium was then pH adjusted to 7.5 and poured over Ni-NTA resin, which immediately turned brown (not shown). 1. Culture medium, 2. Flow through after Ni-NTA, 3. Wash, 4. Elution. The amount of purified mSA was approximately 20% of the expressed protein. (*) mSA. Thermal denaturation of mSA-RF purified with (circle) and without (square) biotin in the medium is shown in b).
Purified mSA was diluted to 15 μM in PBS and loaded in a quartz cuvette with 1.0 mm path length. […]

[3] = Fluorescence polarization spectroscopy, equilibrium affinity Kd; conditions: biotin-fluorescein, overnight incubation at room temperature, PBS 0.1 mg/ml BSA; read-out: equilibrium binding constant Kd
Experimental: as §1, with “Each mutant eluted with a retention time that was consistent with monomeric streptavidin. The molecular weight standards (arrows) correspond to 66.0, 29.0, 12.4 and 6.5 kDa from left to right.” left out
The binding of biotinylated fluorescein (bf, AnaSpec) was measured using a microplate reader (SpectraMax® i3 Microplate reader from Molecular Devices) in flat bottom 96 well plates (Sterilin Ltd). […] After overnight incubation at room temperature, the fluorescence polarization values were measured and fit to the quadratic binding equation (Hsu and Park, 2010, J Mol Graph Model, 29, 295-308). […] To observe dissociation of bf, excess free biotin was added to a final concentration of 100 μM and recording of fluorescence was started immediately. The intensity of polarized fluorescence was measured at various time points and normalized with respect to the value at t=0 min. […]

[4] = Fluorescence polarization spectroscopy, biotin dissociation rate (koff); type: binding; conditions: 37° C.
Experimental: as §1
The binding of biotinylated fluorescein (bf, AnaSpec) was measured using a microplate reader (SpectraMax® i3 Microplate reader from Molecular Devices) in flat bottom 96 well plates (Sterilin Ltd). To measure Kd, 100 nM bf was first mixed with titrating amounts of mSA in PBS containing 0.1 mg/ml bovine serum albumin (BSA). After overnight incubation at room temperature, the fluorescence polarization values were measured and fit to the quadratic binding equation (Hsu and Park, 2010, J Mol Graph Model, 29, 295-308). To measure the off rate (koff), 10 nM bf was first mixed with 50 nM mSA and incubated for 2 hr to form a biotin-mSA complex. To observe dissociation of bf, excess free biotin was added to a final concentration of 100 μM and recording of fluorescence was started immediately. The intensity of polarized fluorescence was measured at various time points and normalized with respect to the value at t=0 min. The intensities were fit to an exponentially decaying function e^−k^off^*t to compute koff. The dissociation half-life t1/2=0.693/koff.
We measured the biotin dissociation rate of various mSA mutants by fluorescence polarization spectroscopy. Table 2 presents the biotin dissociation rate (koff) of various mutants measured by fluorescence polarization spectroscopy. The S25R mutation lowered koff by nearly 21 fold compared to the original mSA and 3.3 fold compared to the S25H mutant (Table 2, FIG. 4b).

[5] = tested on: HEK293 cells displaying biotinylated AP-CFP; assay: Fluorescent labeling of cell surface biotinylated receptor, confocal microscopy; type: cell-based
Excerpt: FIG. 5. Fluorescent labeling of HEK293 cells displaying biotinylated receptor. a) HEK293 cells displaying biotinylated AP-CFP were labeled with Alexa488-conjugated mSA-RWT and imaged by fluorescence microscopy. Fluorescence was filtered for (i) CFP and (ii) Alexa488 and the same field of vision was imaged multiple times at regular intervals to measure the stability of labeling. iii. DIC. mSA-RWT binds only CFP positive cells, indicating high specificity of interaction. b-c) HEK293 displaying unrelated protein fused to CFP b) or untransfected HEK293 c) were treated with purified BirA and then labeled with fluorescent mSA-RWT as in part (a) (i)-(iii) the same as before. d) The captured fluorescence images of mSA-RWT—Alexa488 labeled cells (in jpg format) were loaded into MatLab and the amount of CFP and Alexa488 fluorescence was quantified by summing over pixel values. The fluorescence intensity was normalized with respect to the value at t=0. e) Cells labeled with mSA-RF—EGFP were similarly imaged and analyzed to determine the time dependent loss of mSA labeling.
Adherent HEK293 cells were seeded in a 24 well plate (Becton Dickinson) and grown in DMEM supplemented with 10% FBS and antibiotic/antimycotic (Invitrogen). At 50% confluency, the cells were transfected with a plasmid containing pDisplay-AP-CFP-TM. After 2 days the wells were supplemented with 100 nM purified BirA, 5 mM ATP, and 0.3 mM biotin and the biotinylation reaction was carried out overnight. The following morning, the cells were detached from the wells using EDTA Solution (Versene from Life Technologies), washed with PBS containing 0.1% w/v BSA (PBSF), and fixed in 4% paraformaldehyde solution. Prior to microscopy, cells were labeled with 1 μM mSA-RWT—Alexa488 or 1 μM mSA-RF—EGFP in PBSF for 30 minutes. Excess protein was washed away and cells were switched to PBSF with 0.9 mM biotin. Each sample was mounted on slides and imaged using confocal microscopy. The same field of view was imaged every 10 min for 60 min to quantify fluorescence loss as a function of time. The captured images were analyzed with microscope software (ZEN from Zeiss, and MatLab® from MathWorks).
We tested the use of mSA-RWT or mSA-RF in cell imaging, in which biotinylated proteins on the cell surface were labeled with Alexa488 conjugated mSA-RWT or mSA-RF fused to EGFP, and imaged by fluorescence confocal microscopy. Cell imaging is an important test of whether engineered mutants can specifically interact with biotinylated ligands in a heterogeneous environment, in which other potentially competing interactions can interfere with desired detection. […]
To evaluate the stability of labeling, we imaged the labeled cells repeatedly over 1 hr and quantified the fluorescence intensity of Alexa488 or GFP at regular intervals. […]

| Molecule | Kd [1] [nM] | denaturation temperature ([2]; after low pH treatment (100 mM glycine pH 2.3) and exchange back to PBS pH 7.5) [°C] | thermal unfolding behaviour ([2]; protein purified with biotin in the medium) | thermal unfolding behaviour ([2]; protein purified without biotin in the medium) | Kd [3] [nM] | t1/2 ([4]; dissociation half-life t1/2=0.693/koff, biotin-fluorescein) | Koff(×10^−3 min^−1) ([4]; dissociation of biotin-fluorescein, excess free biotin 100 μM) | Alexa488/GFP fluorescence of labeled cells over time ([5]; after 1 hr, 900 μM biotin in the labeling solution) | labeling of cells displaying biotinylated AP-CFP ([5]; fixed HEK293 cells, 1 μM for 30 minutes) |
| --- | --- | --- | --- | --- | --- | --- | --- | --- | --- |
| B1 | < 0.1 | – | – | – | – | – | – | – | – |
| B2 | – | 60 | clear two state unfolding transition | does not show such transition | 1.3 | 6.7 h and 6.7 ± 0.3 h | 1.73 ± 0.79 ×10^−3 min^−1 | remained high | Only CFP positive cells were labeled selectively |
